This note sets out measurements from PMC7547085, “Specific and direct modulation of the interaction between adhesion GPCR GPR56/ADGRG1 and tissue transglutaminase 2 using synthetic ligands” (Scientific Reports, 2020).

Experiment [1] deals with mouse tissue transglutaminase 2 C-terminal D3D4 domains (mTG2 D3D4) (mouse) (UniProt P21981). Nature of the experiment: bead-binding assay read by flow cytometry; titration of monomeric biotinylated GPR56 fragments on TG2 D3D4-coated M280 beads; detected with neutravidin-650; one-to-one binding fit; apparent KD. On the technique in general: In flow cytometry, cells or beads pass a laser one at a time.

In experiment [2] the target is T1, mouse tissue transglutaminase 2 C-terminal D3D4 domains (mTG2 D3D4) (mouse, UniProt P21981 471-686, biotin on the AVI-tag).
T1 chain: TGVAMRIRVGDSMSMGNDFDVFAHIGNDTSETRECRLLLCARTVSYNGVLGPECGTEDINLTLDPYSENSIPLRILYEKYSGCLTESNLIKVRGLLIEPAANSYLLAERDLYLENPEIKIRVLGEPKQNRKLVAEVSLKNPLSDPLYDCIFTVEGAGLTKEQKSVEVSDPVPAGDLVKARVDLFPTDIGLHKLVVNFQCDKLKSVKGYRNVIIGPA
Kind of experiment: FACS.

Experiment [3] addresses T2, mouse tissue transglutaminase 2 C-terminal D3D4 domains (mTG2 D3D4) (mouse, UniProt P21981 471-686, biotin on the AVI-tag).
T2 construct: tissue transglutaminase 2 (TG2), mouse, domains D3 and D4, residues T471-A686; Used on M280 beads, or tetramerized with neutravidin-650 to stain cells; not shown: AVI-tag, N-terminal, kept
T2 sequence (looked up): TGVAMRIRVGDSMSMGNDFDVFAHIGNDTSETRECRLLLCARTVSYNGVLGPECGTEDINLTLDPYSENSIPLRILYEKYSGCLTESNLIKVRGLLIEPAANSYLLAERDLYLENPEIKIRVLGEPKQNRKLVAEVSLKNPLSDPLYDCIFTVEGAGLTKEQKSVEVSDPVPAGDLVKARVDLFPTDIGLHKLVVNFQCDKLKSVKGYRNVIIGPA
Kind of experiment: bead-binding assay read by flow cytometry; titration of monomeric biotinylated GPR56 fragments on TG2 D3D4-coated M280 beads; detected with neutravidin-650; one-to-one binding fit; apparent KD. The following applies: both partners purified.

As to “human GPR56 ECR H89A (domain or fragment)”, the Kd in experiment [1] stood at 790 nM.

B1: mouse GPR56 ECR S150A (domain or fragment)
chain: GSPREDFRFCGQRNQTQQSTLHYDQSSEPHIFVWNTEETLTIRAPFLAAPDIPRFFPEPRGLYHFCLYWSRHTGRLHLRYGKHDYLLSSQASRLLCFQKQEQSLKQGAPLIATSVSSWQIPQNTALPGAPSFIFSFHNAPHKVSHNASVDMCDLKKELQQLSRYLQHPQKAAKRPTAAFISQQLQSLESKLTSVSFLGDTLSFEEDRVNATVWKLPPTAGLEDLHIHSQKEEEQSEVQAYSLLLPRAVFQQTRGRRRDDAKRLLVVDFSSQALFQDKNSSQVLGEKVLGIVVQNTKVTNLSDPVVLTFQHQPQPKNVTLQCVFWVEDPASSSTGSWSSAGCETVSRDTQTSCLCNHLTYFAVLMVSSTEVEATHKHY
modifications: biotin on the AVI-tag
Regarding B1, the fold increase in affinity against wild type in experiment [1] is 40 fold. For the same molecule, the Kd in experiment [2] was 11 nM.

B2: human GPR56/ADGRG1 extracellular region (ECR), wild type (domain or fragment)
chain: RGHREDFRFCSQRNQTHRSSLHYKPTPDLRISIENSEEALTVHAPFPAAHPASRSFPDPRGLYHFCLYWNRHAGRLHLLYGKRDFLLSDKASSLLCFQHQEESLAQGPPLLATSVTSWWSPQNISLPSAASFTFSFHSPPHTAAHNASVDMCELKRDLQLLSQFLKHPQKASRRPSAAPASQQLQSLESKLTSVRFMGDMVSFEEDRINATVWKLQPTAGLQDLHIHSRQEEEQSEIMEYSVLLPRTLFQRTKGRSGEAEKRLLLVDFSSQALFQDKNSSQVLGEKVLGIVVQNTKVANLTEPVVLTFQHQLQPKNVTLQCVFWVEDPTLSSPGHWSSAGCETVRRETQTSCFCNHLTYFAVLMVSSVEVDAVHKH
modifications: biotin on the AVI-tag
As to B2, the Kd in experiment [3] was 330 ± 15 nM.

B3: mouse GPR56/ADGRG1 extracellular region (ECR), wild type (domain or fragment)
chain: PREDFRFCGQRNQTQQSTLHYDQSSEPHIFVWNTEETLTIRAPFLAAPDIPRFFPEPRGLYHFCLYWSRHTGRLHLRYGKHDYLLSSQASRLLCFQKQEQSLKQGAPLIATSVSSWQIPQNTSLPGAPSFIFSFHNAPHKVSHNASVDMCDLKKELQQLSRYLQHPQKAAKRPTAAFISQQLQSLESKLTSVSFLGDTLSFEEDRVNATVWKLPPTAGLEDLHIHSQKEEEQSEVQAYSLLLPRAVFQQTRGRRRDDAKRLLVVDFSSQALFQDKNSSQVLGEKVLGIVVQNTKVTNLSDPVVLTFQHQPQPKNVTLQCVFWVEDPASSSTGSWSSAGCETVSRDTQTSCLCNHLTYFAVLMVS
modifications: biotin on the AVI-tag
As to B3, the Kd in experiment [3] worked out at 440 ± 20 nM.

B4: mouse GPR56 ECR H89A (domain or fragment)
chain: PREDFRFCGQRNQTQQSTLHYDQSSEPHIFVWNTEETLTIRAPFLAAPDIPRFFPEPRGLYAFCLYWSRHTGRLHLRYGKHDYLLSSQASRLLCFQKQEQSLKQGAPLIATSVSSWQIPQNTSLPGAPSFIFSFHNAPHKVSHNASVDMCDLKKELQQLSRYLQHPQKAAKRPTAAFISQQLQSLESKLTSVSFLGDTLSFEEDRVNATVWKLPPTAGLEDLHIHSQKEEEQSEVQAYSLLLPRAVFQQTRGRRRDDAKRLLVVDFSSQALFQDKNSSQVLGEKVLGIVVQNTKVTNLSDPVVLTFQHQPQPKNVTLQCVFWVEDPASSSTGSWSSAGCETVSRDTQTSCLCNHLTYFAVLMVS
modifications: biotin on the AVI-tag
Turning to B4, the Kd in experiment [3] was 880 ± 80 nM.
